Data taken from publication PMC3723849 (PLoS ONE, 2013).
No end group written: not given here. *: point of attachment. Acm = CC(=O)NC*

What was measured:
[1] = molecular target: T1, His-tagged PSMA (PSMA-His6), soluble ectodomain of prostate-specific membrane antigen (human, UniProt Q04609 44-750); test: AlphaScreen or HTRF; competition: 563-biotin on streptavidin donor beads, PSMA-His6 on nickel chelate acceptor beads, unlabeled peptide at various concentrations; ambient temperature; 25 mM HEPES, 100 mM NaCl, pH 7.4; IC50 used to approximate KD; conditions: both partners purified
T1 construct: prostate-specific membrane antigen (PSMA), human, soluble ectodomain; also called soluble PSMA; poly-histidine tagged PSMA; source: bought: R&D Systems

[2] = molecular target: T1, His-tagged PSMA (PSMA-His6), soluble …; test: immunostaining of cells or tissue; competition: LNCaP cells pre-incubated with soluble PSMA-His6 (100 nM, 2 h, 37°C) before the phage clones were added; loss of phage staining read by confocal microscopy (rfu in ten cells); conditions: both partners purified

T1 sequence (Q04609 44-750): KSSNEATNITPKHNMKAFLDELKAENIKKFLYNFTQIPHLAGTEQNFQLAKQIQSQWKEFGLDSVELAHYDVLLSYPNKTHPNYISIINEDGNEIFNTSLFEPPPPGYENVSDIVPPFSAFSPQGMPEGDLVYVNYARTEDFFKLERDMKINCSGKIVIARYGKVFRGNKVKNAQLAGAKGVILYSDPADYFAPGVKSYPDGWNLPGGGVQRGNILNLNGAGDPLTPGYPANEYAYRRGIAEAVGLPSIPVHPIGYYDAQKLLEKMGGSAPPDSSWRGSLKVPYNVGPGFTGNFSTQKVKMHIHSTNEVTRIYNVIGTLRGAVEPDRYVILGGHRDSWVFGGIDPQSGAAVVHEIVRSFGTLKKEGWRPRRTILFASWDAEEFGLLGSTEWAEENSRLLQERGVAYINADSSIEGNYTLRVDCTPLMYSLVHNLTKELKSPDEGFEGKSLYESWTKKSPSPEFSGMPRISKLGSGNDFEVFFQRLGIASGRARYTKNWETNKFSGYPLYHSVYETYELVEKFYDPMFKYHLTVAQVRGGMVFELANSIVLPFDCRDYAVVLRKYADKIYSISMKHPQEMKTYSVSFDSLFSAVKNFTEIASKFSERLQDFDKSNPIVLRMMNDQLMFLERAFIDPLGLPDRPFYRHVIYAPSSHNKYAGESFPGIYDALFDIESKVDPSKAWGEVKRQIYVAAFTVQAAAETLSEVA

Binder | IC50 [1] [nM] | binding result [2]
ARMFLLFLMRC(Acm)IGC(Acm)Y (not fully specified, 15-mer from phage clone C; Made on Rink amide resin, so a C-terminal amide is to be expected (surmised); source: synthetic peptide (HPLC purified)) [Peptide 565] | > 4830 | 
GTAVASRVYSLHSLM (source: phage clone from the fUSE5 15-mer library, amplified in E. coli K91BluKan; not shown: bacteriophage coat protein (fd phage, fUSE5 library), C-terminal, kept) [Phage clone 2 (round 2 of panning)] |  | binds
LSFFSC(Acm)WLRRSFSLT (15-mer from phage clone G; Made on Rink amide resin, so a C-terminal amide is to be expected (surmised); source: synthetic peptide (HPLC purified)) [Peptide 564] | 1720 | 
